The values that follow come from CN101001872A (MACROGENICS INC, dated 2007).

The target of assay [1] is T1, 细胞表面的人FcγRIIB (CD32B) (human, UniProt P31994 43-310).
T1 construct: whole, on cells; also called huFcγRIIB; CHO/IIB
T1 sequence (looked up): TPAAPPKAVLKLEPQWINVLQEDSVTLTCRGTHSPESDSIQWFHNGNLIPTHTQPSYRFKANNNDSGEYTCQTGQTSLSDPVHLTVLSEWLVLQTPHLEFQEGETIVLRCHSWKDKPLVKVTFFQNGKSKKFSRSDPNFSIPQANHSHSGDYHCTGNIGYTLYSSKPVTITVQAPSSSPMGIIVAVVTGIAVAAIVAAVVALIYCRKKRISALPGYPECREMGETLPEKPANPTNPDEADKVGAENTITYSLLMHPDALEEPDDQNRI
The assay can be described thus: two-colour FACS on CHO cells with full-length FcγRIIB, after mouse IgG1 isotype control.

Assay [2] addresses T1, 细胞表面的人FcγRIIB (CD32B). The experiment in a line: cell-based or functional assay.
In the next assay the target is T2, 人外周血白细胞上的huFcγRIIA (human, UniProt P12318 34-317).
T2 construct: whole, on cells; also called FcγRIIA同种型
T2 sequence (looked up): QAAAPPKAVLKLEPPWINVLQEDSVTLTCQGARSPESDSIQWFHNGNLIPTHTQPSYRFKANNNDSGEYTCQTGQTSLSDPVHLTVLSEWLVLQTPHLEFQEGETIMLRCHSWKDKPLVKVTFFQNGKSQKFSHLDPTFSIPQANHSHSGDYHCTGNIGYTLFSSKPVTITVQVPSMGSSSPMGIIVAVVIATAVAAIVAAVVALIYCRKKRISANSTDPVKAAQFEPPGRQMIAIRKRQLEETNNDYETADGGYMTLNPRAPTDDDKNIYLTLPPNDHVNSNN
The assay can be described thus: FACS on human peripheral blood leukocytes.

The target of the next assay is T3, 可溶性单体形式的人CD32A-R131 (human, UniProt P12318 34-217).
T3 construct: extracellular domain
T3 sequence (looked up): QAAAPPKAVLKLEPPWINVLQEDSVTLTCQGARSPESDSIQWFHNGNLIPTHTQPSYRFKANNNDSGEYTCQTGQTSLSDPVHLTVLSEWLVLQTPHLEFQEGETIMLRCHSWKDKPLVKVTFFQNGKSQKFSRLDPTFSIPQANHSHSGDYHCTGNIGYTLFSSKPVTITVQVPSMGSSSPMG
The assay can be described thus: SPR (BIAcore 3000), antibody captured by goat anti-mouse F(ab′)2, soluble monomeric receptor injected.

Assay [3] addresses T4, THP1单核细胞株上的CD32A (H131形式) (human, UniProt P12318 34-317).
T4 construct: whole, on cells; also called THP-I
T4 sequence (looked up): T2 sequence (looked up)
The experiment in a line: FACS on THP-1 cells.

Assay [4] addresses FcγRIIB (ELISA包被, 哺乳动物系统产生) (human) (UniProt P31994). The experiment in a line: direct ELISA, receptor-coated plate. Background: An ELISA detects its analyte on a solid surface through an enzyme-linked reagent.
Assay [5] deals with T5, 可溶性单体形式的人CD32B (293H细胞中表达的可溶性细胞外结构域) (human, UniProt P31994 43-217).
T5 construct: extracellular domain; also called FcγRIIB
T5 sequence (looked up): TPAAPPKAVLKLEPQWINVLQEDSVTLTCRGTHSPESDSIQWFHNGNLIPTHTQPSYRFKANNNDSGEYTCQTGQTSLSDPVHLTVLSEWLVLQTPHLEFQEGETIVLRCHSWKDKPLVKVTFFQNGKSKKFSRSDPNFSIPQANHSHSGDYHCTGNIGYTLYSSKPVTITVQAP
The assay can be described thus: SPR (BIAcore 3000), captured antibody, soluble monomeric receptor injected. A general note: In SPR one partner is held on a chip, and binding of the other changes the refractive index at the surface.

For assay [6], the target named is T1, 细胞表面的人FcγRIIB (CD32B). The experiment in a line: two-colour FACS on CHO cells with full-length FcγRIIB.

With 聚集的生物素化人IgG (ligand), the percent of cells labelled in the assay with 细胞表面的人FcγRIIB (CD32B) [1] is 60 %.

In turn, 嵌合的抗CD32B抗体ch2B6 (antibody) registered an ADCC with 细胞表面的人FcγRIIB (CD32B) [2] of more than 10 ng/mL.

B1: 由克隆2B6产生的小鼠单克隆抗体 (ATCC PTA-4591) (antibody)
heavy: QVQLQQPVTELVRPGASVMLSCKASDYPFTNYWIHWVKQRPGQGLEWIGVIDPSDTYPNYNKKFKGKATLTVVVSSSTAYMQLSSLTSDDSAVYYCARNGDSDYYSGMDYWGQGTSVTVSS
light: DILLTQSPAILSVSPGERVSFSCRTSQSIGTNIHWYQQRTNGFPRLLIKNVSESISGIPSRFSGSGSGTDFILSINSVESEDIADYYCQQSNTWPFTFGGGTKLEIK
notes: The entries may hold only the variable regions; also called 2B6抗体; m2B6
As to B1, the binding result is “no binding” in the assay with 人外周血白细胞上的huFcγRIIA; “no binding (tested: 100nM可溶性受体)” in the assay with 可溶性单体形式的人CD32A-R131; “no binding” in assay [3]; “binds” in assay [5]; “binds” with 细胞表面的人FcγRIIB (CD32B) [6]. The fold binding against the commercial antibodies AT10, FL18.26 and IV.3 in assay [4] is < 4.5 倍.
